Reference: the supplement of paper PMC9170038

Tested on: MS2 coat protein
Experiment: apparent KD of MS2 coat protein; higher = weaker reporter binding
Settings: Eterna round: R107
How it was run: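 With or without constant ligand, designed RNA switches in 100 mM Tris-HCl pH 7.5, 80 mM KCl and 4 mM MgCl2 were titrated with SNAP-549-labelled MS2 coat protein. Concentrations went up in twofold steps from 0.7 or 1.5 nM to 3 µM. The switches had been transcribed on-chip from Illumina sequencing clusters, and apparent KD is the per-design median of normalised cluster binding-curve fits.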

[1] = input ligand: theophylline 20 uM
[2] = input ligand: tryptophan 2.4 mM
[3] = input ligand: theophylline 2 mM

| Sequence | apparent KD of MS2 coat protein (input ligand: arginine 13.2 mM) | apparent KD of MS2 coat protein [1] | apparent KD of MS2 coat protein [2] | apparent KD of MS2 coat protein [3] | apparent KD of MS2 coat protein (input ligand: none) |
| --- | --- | --- | --- | --- | --- |
| AUUUACAUGGUCAUAUAUAUAUCGUCAGAUACCAGACUAGAUAUUGUCCCUUGGCAGCUGUUACAUGAGGAUCACCCAUGUUAUA [JR_Nu_ExcTheophyA_Sub020] | 54.5 nM | 113 nM | 178 nM |  |  |
| GGCUGCGAUGGCGGAAAUUAUUUACAUAGGCGAGGACCGGUACGGCCGCCACUCGAACGUACAUGAGGAUCACCCAUGUGAUAAU [theeternabot_sameState_MS2_Trp_A_1] | 29 nM | 59.9 nM |  | 70.8 nM |  |
| GUUAAUAGAAAACUAUUAACAGUGGGUGAACGAGGACCGGUACGGCCGCCACUCGGACAUGAGGAUCACCCAUGUCCAUGUGAAA [AstrosExyTryA#5] | 18.6 nM | 16.9 nM | 35.4 nM | 15.6 nM | 16.9 nM |
| CUGACAUGAGGAUCACCCAUGUACACUGAAGGAGCGUCGAGAAUGACAGGUAGGUCGCAGAAUAAUAAUGGUGAUGUUUAGGUAA [Exclusion Arginine A GF 2] | 24 nM | 34.1 nM | 23.4 nM | 26.3 nM | 20.8 nM |
| GGACUAACCAGAAGGAGCGGCACGCAGAAACUGCUAAUUCCUCCGCACGAGGAUCACCCGUGUCAGGUAGGUCGCUGGUUAGUCG [ArgBX 28] | 14.9 nM | 13.8 nM | 13 nM | 14.8 nM | 11.3 nM |
| GUGUCCUAGUCGGCCGCCACUGGUACGAAUACCUUCACCCGUGUGCACAUGAGGAUCACCCAUGUCAGGACCGGGACUAGGGUGU [SSTryp B #24] | 9.87 nM | 11.4 nM | 9.72 nM | 14.1 nM | 10 nM |
| UAUCCACAUGAGGAUCACCCAUGUAGGGAAGGAGCGGUGGUUGCACCAGGUAGGUCGCCUUGCUGAGGAUAACCGGUGGAAUCGU [Exclusion - Arginine A (Freestyle 28)] | 32.8 nM | 26.9 nM | 31.1 nM | 33.6 nM | 18.8 nM |
| UGUAUGGACUGAAGGAGCGGGAAAUAAACCUGAGGAUCACCCAGGUAAUAGGCGAAAGCCACCCAGGUAGGUCGCAGUCCAUACU | 10.7 nM | 14.3 nM | 10.6 nM | 12 nM | 9.91 nM |
| UAUAUAUUGAUGGAUACCAGCAGAGAAAACGUUUAUCCUAACAUGAGGAUCACCCAUGUAUGCCCUUGGCAGCUGUUGAUAUAUA [8.K] | 21.7 nM | 28.7 nM | 18.4 nM |  |  |
| GUCAGUUCUCAUGAUACCAGACCUGCCUCGGACAUGAGGAUCACCCAUGUACCCAAGCGAGUCCCUUGGCAGCAUGUGGCUUAAA [Ririatre] | 24.7 nM | 19.4 nM | 20.7 nM |  |  |
| CCGUUUUAUGGCGACAUAGGGCGGACUGAAGGAGCGGUAAAACAGCCAGGUAGGUCGCAGAGAUCCACAUGAGGAUCACCCAUGU [!0.aC] | 35.7 nM | 43.2 nM | 37.9 nM | 51.2 nM | 39.1 nM |
| AAACAUUGCUCAGAUACCAGACAUGAGGAUCACCCAUGUACCGAGGUACCCGAAAGGAAUGUCCCUUGGCAGCUGAGCAAUGAAA [MAT - Exclusion Theophlline B - Mod of Eli - D22] | 14.2 nM | 15.3 nM | 11.4 nM |  |  |
| GCAUCCUAGUCGGCCGCCACUGGUAUCAACACCUUCACCCGUGUGCACAUGAGGAUCACCCAUGUUAGGACCGGGACUAGGAUGC [SSTryp B #19] | 8.01 nM | 12.5 nM |  | 9.55 nM |  |
| GGACUAACCAGAAGGAGCGAUACGCAGAAACUGCAAUUUCCUCUACACGAGGAUCACCCGUGUCAGGUAGGUCGCUGGUUAGUCG | 25.2 nM | 35.2 nM | 26.7 nM | 29.7 nM | 26.9 nM |
| GGUGAUCCGUGCUGCCGGAUCAUCGGUGAUACCAGCAUCGAAAGAUGCCCUUGGCAGCACCAACAUGAGGAUCACCCAUGUAAUA [(M)'-(T)'-(M)''-(T1)-(T2)-(M1)-(M2)_Design5] | 46 nM | 231 nM | 163 nM |  |  |
| GGAUGAAACUGAAGGAGCGAGAACACAAGAAUGGGUCAAACAUGAGGAUCACCCAUGUAAUCUCAGGUAGGUCGCAGUAUCCCUU [Exclusion Arginine B GF 10] | 44 nM | 50 nM | 36.6 nM | 53.3 nM | 34.3 nM |
| CCCAGUCAUAGCAAAGCAAAUAUACUCGAAGGAGCGUCAUAGUAGGCAGGUAGGUCGCGAGACAUGAGGAUCACCCAUGUAGAGA [ooomullin] | 35.6 nM | 46.7 nM | 41.3 nM | 57.8 nM | 39.7 nM |
